Reference: article PMC13337110, “Pericentrosomal Redistribution of the Endoplasmic Reticulum Ensures Organelle Symmetric Inheritance and Mitotic Progression” (Advanced Science, 2026)

Biological target: T1, 2×Strep-HA-RTN4B (human, UniProt Q9NQC3-2 1-373, when from mitotic cells: mitotic phosphorylation sites S15, S107, S111, S121, S129, S152)
T1 construct: Reticulon 4, isoform RTN4B, human; cDNA GenBank NM_153828.3 amplified from a U2OS cDNA library; N-terminal cytoplasmic region 1-185 and C-terminal RHD; Tag ends read from the printed construct name; also called Reticulon 4; 2×Strep-HA-RTN4B wild-type (WT); source: HeLa, stably expressed; not shown: 2×Strep, N-terminal, kept; HA, N-terminal, kept
T1 sequence (looked up): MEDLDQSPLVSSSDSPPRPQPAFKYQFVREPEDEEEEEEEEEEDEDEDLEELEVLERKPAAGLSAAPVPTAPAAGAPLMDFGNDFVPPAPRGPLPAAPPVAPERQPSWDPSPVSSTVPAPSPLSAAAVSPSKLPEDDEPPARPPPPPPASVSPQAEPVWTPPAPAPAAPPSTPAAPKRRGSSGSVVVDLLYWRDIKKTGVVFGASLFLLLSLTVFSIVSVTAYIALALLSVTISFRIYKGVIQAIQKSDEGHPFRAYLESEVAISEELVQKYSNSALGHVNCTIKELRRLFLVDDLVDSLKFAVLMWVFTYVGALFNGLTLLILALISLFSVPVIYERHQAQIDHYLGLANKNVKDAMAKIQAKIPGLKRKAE
Experiment: pull-down; in vitro binding: 2×Strep-HA-RTN4B on Strep-Tactin XT beads incubated with purified GST-Rab11A, 2 h at 4°C; eluted with Strep-Tactin XT elution buffer; Western blot and Coomassie
Settings: both partners purified

binding result: binds
B1: GST-Rab11A (natural protein, human, UniProt P62491-1 1-216, looked up)
chain: MGTRDDEYDYLFKVVLIGDSGVGKSNLLSRFTRNEFNLESKSTIGVEFATRSIQVDGKTIKAQIWDTAGQERYRAITSAYYRGAVGALLVYDIAKHLTYENVERWLKELRDHADSNIVIMLVGNKSDLRHLRAVPTDEARAFAEKNGLSFIETSALDSTNVEAAFQTILTEIYRIVSQKQMSDRRENDMSPSNNVVPIHVPPTTENKPKVQCCQNI
notes: Rab11A, human; cDNA GenBank NM_004663.5 in pGEX-6P-1; also called Recombinant Rab11A; GST-tagged Rab11A; source: E. coli Rosetta (DE3), purified (Glutathione Sepharose 4B; eluted with reduced glutathione or kept on beads); not shown: GST, N-terminal, kept
